From patent publication US20170081400A1 (CEPHALON, published 2017)

B1: 320-443 (antibody, human IgG1, name in Kabat numbering, V domains shown)
VH: QVQLVQSGAEVKKPGASVKVSCKASGYTFTSKDINWVRQAPGQGLEWMGWLNPNSGNTGYAQKFQGRVTMTADRSTSTAYMELSSLRSEDTAVYYCAREVPETAAFEYWGQGTLVTVSS
VL: QSVLTQPPSVSGAPGQRVTISCTSSSSDIGAGLGVHWYQQLPGTAPKLLIEGYYNRPSGVPDRFSGSKSGTSASLTITGLLPEDEGDYYCQSYDGTLSALFGGGTKLTVLG
notes: human IgG1, lambda
B2: 320-445 (antibody, human IgG1, name in Kabat numbering, V domains shown)
VH: QVQLVQSGAEVKKPGASVKVSCKASGYTFTSWDINWVRQAPGQGLEWMGWLNPNSGNTGYAQKFQGRVTMTADRSTSTAYMELSSLRSEDTAVYYCAREVPETAAFEYWGQGTLVTVSS
VL: QSVLTQPPSVSGAPGQRVTISCTSSSSDIGAGLGVHWYQQLPGTAPKLLIEGYYNRPSGVPDRFSGSKSGTSASLTITGLLPEDEGDYYCQSYDGTLSALFGGGTKLTVLG
notes: human IgG1, lambda
B3: 320-463 (antibody, human IgG1, name in Kabat numbering, V domains shown)
VH: QVQLVQSGAEVKKPGASVKVSCKASGYTFTSYDIAWVRQAPGQGLEWMGWLNPNSGNTGYAQKFQGRVTMTADRSTSTAYMELSSLRSEDTAVYYCAREVPETAAFEYWGQGTLVTVSS
VL: QSVLTQPPSVSGAPGQRVTISCTSSSSDIGAGLGVHWYQQLPGTAPKLLIEGYYNRPSGVPDRFSGSKSGTSASLTITGLLPEDEGDYYCQSYDGTLSALFGGGTKLTVLG
notes: human IgG1, lambda
B4: 320-464 (antibody, human IgG1, name in Kabat numbering, V domains shown)
VH: QVQLVQSGAEVKKPGASVKVSCKASGYTFTSYDISWVRQAPGQGLEWMGWLNPNSGNTGYAQKFQGRVTMTADRSTSTAYMELSSLRSEDTAVYYCAREVPETAAFEYWGQGTLVTVSS
VL: QSVLTQPPSVSGAPGQRVTISCTSSSSDIGAGLGVHWYQQLPGTAPKLLIEGYYNRPSGVPDRFSGSKSGTSASLTITGLLPEDEGDYYCQSYDGTLSALFGGGTKLTVLG
notes: human IgG1, lambda
B5: 320-472 (antibody, human IgG1, name in Kabat numbering, V domains shown)
VH: QVQLVQSGAEVKKPGASVKVSCKASGYTFTSYDINWVRQAPGQGLEWMGWLNPNSGNTGYAQKFQGRVTMTADRSTSTAYMELSSLRSEDTAVYYCAREVPETAAFEYWGQGTLVTVSS
VL: QSVLTQPPSVSGAPGQRVTISCTSSSSDIGAGLGVHWYQQLPGTAPKLLIEGYYNRPSGVPDRFSGSKSGTSASLTITGLLPEDEGDYYCQLYDGTLSALFGGGTKLTVLG
notes: human IgG1, lambda
B6: 320-473 (antibody, human IgG1, name in Kabat numbering, V domains shown)
VH: QVQLVQSGAEVKKPGASVKVSCKASGYTFTSYDINWVRQAPGQGLEWMGWLNPNSGNTGYAQKFQGRVTMTADRSTSTAYMELSSLRSEDTAVYYCAREVPETAAFEYWGQGTLVTVSS
VL: QSVLTQPPSVSGAPGQRVTISCTSSSSDIGAGLGVHWYQQLPGTAPKLLIEGYYNRPSGVPDRFSGSKSGTSASLTITGLLPEDEGDYYCQSDDGTLSALFGGGTKLTVLG
notes: human IgG1, lambda
B7: 320-476 (antibody, human IgG1, name in Kabat numbering, V domains shown)
VH: QVQLVQSGAEVKKPGASVKVSCKASGKTFTSYDINWVRQAPGQGLEWMGWLNPNSGNTGYAQKFQGRVTMTADRSTSTAYMELSSLRSEDTAVYYCAREVPETAAFEYWGQGTLVTVSS
VL: QSVLTQPPSVSGAPGQRVTISCTSSSSDIGAGLGVHWYQQLPGTAPKLLIEGYYNRPSGVPDRFSGSKSGTSASLTITGLLPEDEGDYYCQSYDGTLSALFGGGTKLTVLG
notes: human IgG1, lambda
B8: 320-477 (antibody, human IgG1, name in Kabat numbering, V domains shown)
VH: QVQLVQSGAEVKKPGASVKVSCKASGYTFTHYDINWVRQAPGQGLEWMGWLNPNSGNTGYAQKFQGRVTMTADRSTSTAYMELSSLRSEDTAVYYCAREVPETAAFEYWGQGTLVTVSS
VL: QSVLTQPPSVSGAPGQRVTISCTSSSSDIGAGLGVHWYQQLPGTAPKLLIEGYYNRPSGVPDRFSGSKSGTSASLTITGLLPEDEGDYYCQSYDGTLSALFGGGTKLTVLG
notes: human IgG1, lambda
B9: 320-478 (antibody, human IgG1, name in Kabat numbering, V domains shown)
VH: QVQLVQSGAEVKKPGASVKVSCKASGYTFTSYDINWVRQAPGQGLEWMGWLNPNSGNTGYLQKFQGRVTMTADRSTSTAYMELSSLRSEDTAVYYCAREVPETAAFEYWGQGTLVTVSS
VL: QSVLTQPPSVSGAPGQRVTISCTSSSSDIGAGLGVHWYQQLPGTAPKLLIEGYYNRPSGVPDRFSGSKSGTSASLTITGLLPEDEGDYYCQSYDGTLSALFGGGTKLTVLG
notes: human IgG1, lambda
B10: 320-479 (antibody, human IgG1, name in Kabat numbering, V domains shown)
VH: QVQLVQSGAEVKKPGASVKVSCKASGYTFTSYDINWVRQAPGQGLEWMGWLNPNSGNTGYWQKFQGRVTMTADRSTSTAYMELSSLRSEDTAVYYCAREVPETAAFEYWGQGTLVTVSS
VL: QSVLTQPPSVSGAPGQRVTISCTSSSSDIGAGLGVHWYQQLPGTAPKLLIEGYYNRPSGVPDRFSGSKSGTSASLTITGLLPEDEGDYYCQSYDGTLSALFGGGTKLTVLG
notes: human IgG1, lambda
B11: 320-480 (antibody, human IgG1, name in Kabat numbering, V domains shown)
VH: QVQLVQSGAEVKKPGASVKVSCKASGYTFTSYDINWVRQAPGQGLEWMGWLNPNSGNTGYYQKFQGRVTMTADRSTSTAYMELSSLRSEDTAVYYCAREVPETAAFEYWGQGTLVTVSS
VL: QSVLTQPPSVSGAPGQRVTISCTSSSSDIGAGLGVHWYQQLPGTAPKLLIEGYYNRPSGVPDRFSGSKSGTSASLTITGLLPEDEGDYYCQSYDGTLSALFGGGTKLTVLG
notes: human IgG1, lambda
B12: 320-490 (antibody, human IgG1, name in Kabat numbering, V domains shown)
VH: QVQLVQSGAEVKKPGASVKVSCKASGYTFTSYDINWVRQAPGQGLEWMGYLNPNSGNTGYAQKFQGRVTMTADRSTSTAYMELSSLRSEDTAVYYCAREVPETAAFEYWGQGTLVTVSS
VL: QSVLTQPPSVSGAPGQRVTISCTSSSSDIGAGLGVHWYQQLPGTAPKLLIEGYYNRPSGVPDRFSGSKSGTSASLTITGLLPEDEGDYYCQSYDGTLSALFGGGTKLTVLG
notes: human IgG1, lambda
B13: 320-491 (antibody, human IgG1, name in Kabat numbering, V domains shown)
VH: QVQLVQSGAEVKKPGASVKVSCKASGYTFTSYDINWVRQAPGQGLEWMGWSNPNSGNTGYAQKFQGRVTMTADRSTSTAYMELSSLRSEDTAVYYCAREVPETAAFEYWGQGTLVTVSS
VL: QSVLTQPPSVSGAPGQRVTISCTSSSSDIGAGLGVHWYQQLPGTAPKLLIEGYYNRPSGVPDRFSGSKSGTSASLTITGLLPEDEGDYYCQSYDGTLSALFGGGTKLTVLG
notes: human IgG1, lambda
B14: 320-267 (antibody, human IgG1, V domains shown)
VH: QVQLVQSGAEVKKPGASVKVSCKASGYTFTSYDINWVRQAPGQGLEWMGWLNPNSGNTGYAQKFQGRVTMTADRSTSTAYMELSSLRSEDTAVYYCAREVPETAAFEYWGQGTLVTVSS
VL: QSVLTQPPSVSGAPGQRVTISCTSSSSDIGAALGVHWYQQLPGTAPKLLIEGYYNRPSGVPDRFSGSKSGTSASLTITGLLPEDEGDYYCQSYDGTLSALFGGGTKLTVLG
B15: 320-277 (antibody, human IgG1, V domains shown)
VH: QVQLVQSGAEVKKPGASVKVSCKASGYTFTSYDINWVRQAPGQGLEWMGWLNPNSGNTGYAQKFQGRVTMTADRSTSTAYMELSSLRSEDTAVYYCAREVPETAAFEYWGQGTLVTVSS
VL: QSVLTQPPSVSGAPGQRVTISCTSSSSDIGAGSGVHWYQQLPGTAPKLLIEGYYNRPSGVPDRFSGSKSGTSASLTITGLLPEDEGDYYCQSYDGTLSALFGGGTKLTVLG
B16: 320-278 (antibody, human IgG1, V domains shown)
VH: QVQLVQSGAEVKKPGASVKVSCKASGYTFTSYDINWVRQAPGQGLEWMGWLNPNSGNTGYAQKFQGRVTMTADRSTSTAYMELSSLRSEDTAVYYCAREVPETAAFEYWGQGTLVTVSS
VL: QSVLTQPPSVSGAPGQRVTISCTSSSSDIGAGQGVHWYQQLPGTAPKLLIEGYYNRPSGVPDRFSGSKSGTSASLTITGLLPEDEGDYYCQSYDGTLSALFGGGTKLTVLG

Assays:
[1] = target: T1, human TL1A extracellular domain with N-terminal HIS and FLAG tag (human) (UniProt O95150); experiment: cell-based or functional assay
T1 sequence: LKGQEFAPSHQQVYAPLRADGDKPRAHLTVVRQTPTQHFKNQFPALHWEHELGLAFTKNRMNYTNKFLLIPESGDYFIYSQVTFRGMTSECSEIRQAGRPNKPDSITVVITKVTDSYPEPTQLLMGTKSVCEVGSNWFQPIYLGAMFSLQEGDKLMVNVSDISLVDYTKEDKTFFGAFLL

[2] = target: T2, human TL1A extracellular domain with N-terminal HIS and FLAG tag (human, UniProt O95150 72-251); experiment: SPR Run 6, purified Ab captured on Protein A, TL1A 5 ug/mL, timepoint 44
T2 construct: the whole entry is named
T2 sequence: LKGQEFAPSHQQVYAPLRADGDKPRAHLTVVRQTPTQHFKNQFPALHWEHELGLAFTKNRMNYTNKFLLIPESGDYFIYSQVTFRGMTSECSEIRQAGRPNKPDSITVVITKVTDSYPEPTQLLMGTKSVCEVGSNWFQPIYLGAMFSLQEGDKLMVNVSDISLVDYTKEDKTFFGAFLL
In short: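 The capture level was the response change at the end of loading, which varied by run. Antigen response was read before dissociation ended, double-referenced against a reference flow cell and a buffer blank.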

[3] = target: T2, human TL1A extracellular domain with …; experiment: SPR Run 6, purified Ab captured on Protein A, TL1A 5 ug/mL, timepoint 170
In short: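 Surface plasmon resonance on a Biacore T200 was used, with variants spread over several runs. Antibodies were captured via immobilized Protein A, and their capture level was recorded. Sensorgrams were double-referenced, and the antigen response was read near the end of dissociation.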

[4] = target: T3, human TL1A extracellular domain with N-terminal HIS and FLAG tag (human, UniProt O95150 72-251); experiment: cell-based or functional assay
T3 sequence: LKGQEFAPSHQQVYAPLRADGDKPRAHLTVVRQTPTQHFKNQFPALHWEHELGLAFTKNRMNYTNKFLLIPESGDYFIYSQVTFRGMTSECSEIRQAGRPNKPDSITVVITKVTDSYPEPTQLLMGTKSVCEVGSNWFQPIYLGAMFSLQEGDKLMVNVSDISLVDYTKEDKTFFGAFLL

Binder | Antibody IC50, TL1A induced caspase potency assay in TF-1 cells [1] [µg/mL] | Fold improvement over 320-179, TL1A induced caspase potency assay in TF-1 cells [1] [fold] | TL1A Binding Level (Early) [2] [RU] | TL1A Binding Level (Late) [3] [RU] | Antibody IC50, TL1A induced caspase potency assay in TF-1 cells [4] [µg/mL] | Fold improvement over 320-179, TL1A induced caspase potency assay in TF-1 cells [4] [fold]
B1 | 0.06 | 1 | 114 | 103 |  | 
B2 | 0.03 | 2 | 116 | 106 |  | 
B3 | 0.02 | 3 | 102 | 101 |  | 
B4 | 0.03 | 2 | 130 | 124 |  | 
B5 |  |  | 23 | 10 |  | 
B6 |  |  | 69 | 55 |  | 
B7 |  |  | 128 | 118 |  | 
B8 | 0.03 | 1 | 148 | 136 |  | 
B9 |  |  | 85 | 77 |  | 
B10 |  |  | 61 | 54 |  | 
B11 |  |  | 79 | 73 |  | 
B12 |  |  | 14 | 8 |  | 
B13 |  |  | 85 | 76 |  | 
B14 |  |  |  |  | 0.01 | 4
B15 |  |  |  |  | 0.003 | 3
B16 |  |  |  |  | 0.01 | 2
